Measurements as given in patent US20140142103, “Methods and Compositions for Modulating Rad51 and Homologous Recombination” (The University of Chicago, published 2014).

Biological target: RecA (UniProt P0A7G6 P0A7G6:2-353)
Experiment: FP; positive control; 10 mM Mg acetate, 2 mM ATP, 37 C
Settings: tags: New England Biolabs; label: 5' fluorescein
Protocol: FIG. 2A, bottom: Purified RAD51 protein (wild type or mutant F86E) were serially diluted. RecA (New England Biolabs) was used as a positive control. Proteins were added to a 5′terminal fluorescein conjugated oligonucleotide (45 bases of dT) at a 1 μM nucleotide concentration. The mixture was incubated at 37° C. for 30 minutes in 384-well plates containing a reaction buffer (30 mM Tris/acetate pH 7.5, 10 mM Mg²⁺/acetate, 2 mM ATP, 0.1 mM DTT, 0.5 μM BSA). Fluorescence polarization was measured with a plate reader (filters: excitation=485 nm, emission=510 nm). FIG. 2B, top: Varying concentrations of 5′terminal fluorescein conjugated oligonucleotide were used to determine the threshold RAD51 concentration.
RAD51 filament formation can also be studied using oligonucleotides that are end-labeled with a fluorescent tag. Binding of proteins to this substrate DNA can be detected as an increase in anisotropy (or polarization) of the fluorescent tag. This method has been used to monitor the DNA-binding activity of yeast RAD51 (Kim et al., 2001) and RecA (Wittung et al., 1997; Ellouze et al., 1999), which is the […] homolog of RAD51. In this example, this method was modified so that very small sample volumes (30 μl) can be monitored in a high-throughput scale, using 384-well plates and a fluorescent plate reader. […]

RecA, sequence (P0A7G6 2-353, one chain of several): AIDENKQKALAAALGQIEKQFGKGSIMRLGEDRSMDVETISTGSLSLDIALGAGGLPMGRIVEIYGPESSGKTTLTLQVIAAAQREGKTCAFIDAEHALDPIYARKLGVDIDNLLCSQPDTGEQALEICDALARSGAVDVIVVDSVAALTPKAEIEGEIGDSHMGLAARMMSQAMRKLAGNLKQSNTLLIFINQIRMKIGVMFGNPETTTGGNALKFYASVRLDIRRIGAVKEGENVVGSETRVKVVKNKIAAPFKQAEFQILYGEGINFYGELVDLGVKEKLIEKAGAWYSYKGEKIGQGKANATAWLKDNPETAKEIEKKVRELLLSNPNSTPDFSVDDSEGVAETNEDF

B1: oligo dT45 (ssDNA)
DNA: TTTTTTTTTTTTTTTTTTTTTTTTTTTTTTTTTTTTTTTTTTTTT
B1: binds.
